Source: patent publication US20210380703A1 (RIGEL PHARMACEUTICALS, published 2021)

What was measured:
human ACVR2A = human ACVR2A (human, UniProt P27037 20-135, limits assumed); assay: ELISA
In short: (§1)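 ELISA measured binding of ACVR2A-specific monoclonal antibodies to human and mouse ACVR2A. Biotinylated goat anti-human kappa light chain served as positive control and human Fc as negative control.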

mouse ACVR2A = mouse ACVR2A (mouse, UniProt P27038 20-135, limits assumed); assay: ELISA
In short: as §1

[1] = target: T1, biotinylated goat anti-human kappa light chain; assay: ELISA; positive control
T1 construct: Positive control of the ELISA
In short: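 Monoclonal antibodies were first applied to human or mouse ACVR2A, alongside biotinylated goat anti-human kappa light chain (positive control) and human Fc (negative control); binding was then determined by ELISA.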
Also: test concentration or dose not given here.

mouse ACVR2A, sequence (P27038 20-135 limits assumed): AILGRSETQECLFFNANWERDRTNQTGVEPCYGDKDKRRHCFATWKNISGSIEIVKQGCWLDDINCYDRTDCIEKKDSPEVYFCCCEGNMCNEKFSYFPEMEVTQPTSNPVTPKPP
human ACVR2A, sequence (P27037 20-135 limits assumed): as the sequence (P27038 20-135 limits assumed) above, with R20K, I73V counted along it

| optical density (human ACVR2A) | optical density (mouse ACVR2A) | optical density [1] | Binder |
| --- | --- | --- | --- |
| 2.31 OD | 2.41 OD | 3.6 OD | 366_C01 (antibody, V domains shown, VH/VL only) VH: not shown VL: DIQMTQSPSSLSASVGDRVTITCRASQSIVTYLNWYQQKPGKAPKLLIYAATSPASGVPSRFSGSGSGTDFTLTISSLQPEDFATYYCQQSYELPLTFGGGTKVEIK |
| 2.27 OD | 2.55 OD | 3.57 OD | 366_D02 (antibody, V domains shown, VH/VL only) VH: EVQLLESGGGLVQPGGSLRLSCAASGFTFSSYSMNWVRQAPGKGLEWVASINYNGGYTSYADSVKGRFTISRDNSKNTLYLQMNSLRAEDTAVYYCARSATWHDTHLDYWGQGTLVTVSS VL: DIQMTQSPSSLSASVGDRVTITCRASQSILSYVNWYQQKPGKAPKLLIYATTSLASGVPSRFSGSGSGTDFTLTISSLQPEDFATYYCQQSYDLPLTFGGGTKVEIK |
| 2.41 OD | 2.62 OD | 3.38 OD | 366_D07 (antibody, V domains shown, VH/VL only) VH: not shown VL: DIQMTQSPSSLSASVGDRVTITCRASQSILTYLNWYQQKPGKAPKLLIYAATSLASGVPSRFSGSGSGTDFTLTISSLQPEDFATYYCQQSYSSPLTFGGGTKVEIK |
| 2.44 OD | 2.74 OD | 3.47 OD | 366_H05 (antibody, V domains shown, VH/VL only) VH: EVQLLESGGGLVQPGGSLRLSCAASGFTFDSYGMHWVRQAPGKGLEWVASINYNGGYTSYADSVKGRFTISRDNSKNTLYLQMNSLRAEDTAVYYCARSATWHDTHLDYWGQGTLVTVSS VL: DIQMTQSPSSLSASVGDRVTITCRASQSILSYVNWYQQKPGKAPKLLIYAATSLASGVPSRFSGSGSGTDFTLTISSLQPEDFATYYCQQSYDLPLTFGGGTKVEIK |
| 3.18 OD | 3.28 OD | 3.51 OD | 367_A01 (antibody, V domains shown, VH/VL only) VH: EVQLLESGGGLVQPGGSLRLSCAASGFTFSSYSMNWVRQAPGKGLEWVASINYNGGYTGYADSVKGRFTISRDNSKNTLYLQMNSLRAEDTAVYYCARSATWHDTHLDYWGQGTLVTVSS VL: DIQMTQSPSSLSASVGDRVTITCRASQSILTYLNWYQQKPGKAPKLLIYAATSRASGVPSRFSGSGSGTDFTLTISSLQPEDFATYYCQQSYDLPLTFGGGTKVEIK |
| 2.3 OD | 2.81 OD | 3.51 OD | 367_C03 (antibody, V domains shown, VH/VL only) VH: EVQLLESGGGLVQPGGSLRLSCAASGFTFSSYSMNWVRQAPGKGLEWVANINYNGGYTGYADSVKGRFTISRDNSKNTLYLQMNSLRAEDTAVYYCARSATWHDTALDYWGQGTLVTVSS VL: DIQMTQSPSSLSASVGDRVTITCRASQSILSYVNWYQQKPGKAPKLVIYATTSRASGVPSRFSGSGSGTDFTLTISSLQPEDFATYYCQQSYENPLTFGGGTKVEIK |
| 1.87 OD | 2.03 OD | 3.44 OD | 367_E02 (antibody, V domains shown, VH/VL only) VH: EVQLLESGGGLVQPGGSLRLSCAASGFTFDSYSMNWVRQAPGKGLEWVAGINYNGGYTGYADSVKGRFTISRDNSKNTLYLQMNSLRAEDTAVYYCARSATWHDTHLDYWGQGTLVTVSS VL: not shown |
| 3.02 OD | 3.2 OD | 3.29 OD | 367_G07 (antibody, V domains shown, VH/VL only) VH: EVQLLESGGGLVQPGGSLRLSCAASGFTFDSYSMNWVRQAPGKGLEWVANINYNGGYTGYADSVKGRFTISRDNSKNTLYLQMNSLRAEDTAVYYCARSATWHDTHLDYWGQGTLVTVSS VL: DIQMTQSPSSLSASVGDRVTITCRASQSILTYVNWYQQKPGKAPKLLIYAATSRASGVPSRFSGSGSGTDFTLTISSLQPEDFATYYCQQSYDNPLTFGGGTKVEIK |
| 2.61 OD | 2.92 OD | 3.71 OD | 368_C01 (antibody, V domains shown, VH/VL only) VH: EVQLLESGGGLVQPGGSLRLSCAASGFTFDSYGMNWVRQAPGKGLEWVAGINYNGGYTGYADSVKGRFTISRDNSKNTLYLQMNSLRAEDTAVYYCARSATWHDTALDYWGQGTLVTVSS VL: DIQMTQSPSSLSASVGDRVTITCRASQSIITYLNWYQQKPGKAPKLLIYAATSRASGVPSRFSGSGSGTDFTLTISSLQPEDFATYYCQQSYDSPLTFGGGTKVEIK |

The remaining lines, values behind:

| Binder | optical density (human ACVR2A) | optical density (mouse ACVR2A) | optical density [1] |
| --- | --- | --- | --- |
| 365_F08 (antibody, V domains shown, VH/VL only) VH: EVQLLESGGGLVQPGGSLRLSCAASGFTFDDYGMNWVRQAPGKGLEWVANINYNGGYTSYADSVKGRFTISRDNSKNTLYLQMNSLRAEDTAVYYCARSATWHDTHLDYWGQGTLVTVSS VL: DIQMTQSPSSLSASVGDRVTITCRASQSILSYVNWYQQKPGKAPKLLIYAATSRHSGVPSRFSGSGSGTDFTLTISSLQPEDFATYYCQQSYSLPLTFGGGTKVEIK | 2.25 OD | 2.61 OD | 3.63 OD |
| 365_G12 (antibody, V domains shown, VH/VL only) VH: EVQLLESGGGLVQPGGSLRLSCAASGFTFSSYGMNWVRQAPGKGLEWVAGINYNSGYTSYADSVKGRFTISRDNSKNTLYLQMNSLRAEDTAVYYCARSATWHDTALDYWGQGTLVTVSS VL: DIQMTQSPSSLSASVGDRVTITCRASQSILSYVNWYQQKPGKAPKLVIYAATSRASGVPSRFSGSGSGTDFTLTISSLQPEDFATYYCQQSYSNPLTFGGGTKVEIK | 2.74 OD | 2.75 OD | 3.55 OD |
| 366_A03 (antibody, V domains shown, VH/VL only) VH: EVQLLESGGGLVQPGGSLRLSCAASGFTFDSYSMNWVRQAPGKGLEWVAGINYNSGYKGYADSVKGRFTISRDNSKNTLYLQMNSLRAEDTAVYYCARSATWHDTHLDYWGQGTLVTVSS VL: DIQMTQSPSSLSASVGDRVTITCRASQSISSYLNWYQQKPGKAPKLLIYAATSLASGVPSRFSGSGSGTDFTLTISSLQPEDFATYYCQQSYSNPLTFGGGTKVEIK | 1.15 OD | 1.12 OD | 3.31 OD |
| 366_A05 (antibody, V domains shown, VH/VL only) VH: EVQLLESGGGLVQPGGSLRLSCAASGFTFSSYSMNWVRQAPGKGLEWVAGINYNSGYTGYADSVKGRFTISRDNSKNTLYLQMNSLRAEDTAVYYCARSATWHDTHLDYWGQGTLVTVSS VL: DIQMTQSPSSLSASVGDRVTITCRASQSILTYVNWYQQKPGKAPKLVIYAATSLASGVPSRFSGSGSGTDFTLTISSLQPEDFATYYCQQSYNTPLTFGGGTKVEIK | 2.62 OD | 2.6 OD | 3.48 OD |
| 366_A09 (antibody, V domains shown, VH/VL only) VH: EVQLLESGGGLVQPGGSLRLSCAASGFTFSDYGMHWVRQAPGKGLEWVASINYNSGYTSYADSVKGRFTISRDNSKNTLYLQMNSLRAEDTAVYYCARSATWHDTHLDYWGQGTLVTVSS VL: DIQMTQSPSSLSASVGDRVTITCRASQSILTYLNWYQQKPGKAPKLLIYAATSRHSGVPSRFSGSGSGTDFTLTISSLQPEDFATYYCQQSYETPLTFGGGTKVEIK | 1.79 OD | 1.93 OD | 3.28 OD |
| 366_B04 (antibody, V domains shown, VH/VL only) VH: EVQLLESGGGLVQPGGSLRLSCAASGFTFDSYSMNWVRQAPGKGLEWVAGINYNGGYKGYADSVKGRFTISRDNSKNTLYLQMNSLRAEDTAVYYCARSATWHDTHLDYWGQGTLVTVSS VL: DIQMTQSPSSLSASVGDRVTITCRASQSILTYVNWYQQKPGKAPKLVIYAATSRHSGVPSRFSGSGSGTDFTLTISSLQPEDFATYYCQQSYDTPLTFGGGTKVEIK | 2.81 OD | 3.05 OD | 3.4 OD |
| 366_C02 (antibody, V domains shown, VH/VL only) VH: EVQLLESGGGLVQPGGSLRLSCAASGFTFSDYSMNWVRQAPGKGLEWVANINYNGGYTGYADSVKGRFTISRDNSKNTLYLQMNSLRAEDTAVYYCARSATWHDTHLDYWGQGTLVTVSS VL: DIQMTQSPSSLSASVGDRVTITCRASQSIVSYLNWYQQKPGKAPKLLIYAATSRASGVPSRFSGSGSGTDFTLTISSLQPEDFATYYCQQSYDNPLTFGGGTKVEIK | 3.03 OD | 3.04 OD | 3.43 OD |
| 367_A09 (antibody, V domains shown, VH/VL only) VH: EVQLLESGGGLVQPGGSLRLSCAASGFTFDSYGMNWVRQAPGKGLEWVAGINYNGGYTSYADSVKGRFTISRDNSKNTLYLQMNSLRAEDTAVYYCARSATWHDTHLDYWGQGTLVTVSS VL: DIQMTQSPSSLSASVGDRVTITCRASQSILSYVNWYQQKPGKAPKLVIYAATSRHSGVPSRFSGSGSGTDFTLTISSLQPEDFATYYCQQSYDTPLTFGGGTKVEIK | 2.18 OD | 2.41 OD | 3.45 OD |
| 367_F02 (antibody, V domains shown, VH/VL only) VH: EVQLLESGGGLVQPGGSLRLSCAASGFTFDSYSMNWVRQAPGKGLEWVANINYNGGYTSYADSVKGRFTISRDNSKNTLYLQMNSLRAEDTAVYYCARSATWHDTHLDYWGQGTLVTVSS VL: DIQMTQSPSSLSASVGDRVTITCRASQSIISYVNWYQQKPGKAPKLLIYAATSRHSGVPSRFSGSGSGTDFTLTISSLQPEDFATYYCQQSYESPLTFGGGTKVEIK | 2.38 OD | 2.27 OD | 3.52 OD |
| 367_F05 (antibody, V domains shown, VH/VL only) VH: EVQLLESGGGLVQPGGSLRLSCAASGFTFSSYGMNWVRQAPGKGLEWVASINYNGGYTGYADSVKGRFTISRDNSKNTLYLQMNSLRAEDTAVYYCARSATWHDTALDYWGQGTLVTVSS VL: DIQMTQSPSSLSASVGDRVTITCRASQSILSYVNWYQQKPGKAPKLLIYAATSRASGVPSRFSGSGSGTDFTLTISSLQPEDFATYYCQQSYSSPLTFGGGTKVEIK | 2.27 OD | 2.48 OD | 3.44 OD |
| 367_H07 (antibody, V domains shown, VH/VL only) VH: EVQLLESGGGLVQPGGSLRLSCAASGFTFSSYSMNWVRQAPGKGLEWVANINYNGGYTGYADSVKGRFTISRDNSKNTLYLQMNSLRAEDTAVYYCARSATWHDTALDYWGQGTLVTVSS VL: DIQMTQSPSSLSASVGDRVTITCRASQSILSYVNWYQQKPGKAPKLVIYATTSRASGVPSRFSGSGSGTDFTLTISSLQPEDFATYYCQQSYENPLTFGGGTKVEIK | 2.72 OD | 2.68 OD | 3.46 OD |
